The record followed here is patent publication EP4806514A2 (Lepu Biopharma Co., Ltd., dated 2025).

In experiment [1] the target is T1, hCDH17-his (full length extracellular domain of human CDH17, Q23-M787, his tag at the C-terminal) (human, UniProt Q12864 23-787).
T1 construct: Limits of the construct (UniProt Q12864, Q23-M787, C-terminal his tag); also called human CDH17-his protein; human CDH17 protein
T1 sequence: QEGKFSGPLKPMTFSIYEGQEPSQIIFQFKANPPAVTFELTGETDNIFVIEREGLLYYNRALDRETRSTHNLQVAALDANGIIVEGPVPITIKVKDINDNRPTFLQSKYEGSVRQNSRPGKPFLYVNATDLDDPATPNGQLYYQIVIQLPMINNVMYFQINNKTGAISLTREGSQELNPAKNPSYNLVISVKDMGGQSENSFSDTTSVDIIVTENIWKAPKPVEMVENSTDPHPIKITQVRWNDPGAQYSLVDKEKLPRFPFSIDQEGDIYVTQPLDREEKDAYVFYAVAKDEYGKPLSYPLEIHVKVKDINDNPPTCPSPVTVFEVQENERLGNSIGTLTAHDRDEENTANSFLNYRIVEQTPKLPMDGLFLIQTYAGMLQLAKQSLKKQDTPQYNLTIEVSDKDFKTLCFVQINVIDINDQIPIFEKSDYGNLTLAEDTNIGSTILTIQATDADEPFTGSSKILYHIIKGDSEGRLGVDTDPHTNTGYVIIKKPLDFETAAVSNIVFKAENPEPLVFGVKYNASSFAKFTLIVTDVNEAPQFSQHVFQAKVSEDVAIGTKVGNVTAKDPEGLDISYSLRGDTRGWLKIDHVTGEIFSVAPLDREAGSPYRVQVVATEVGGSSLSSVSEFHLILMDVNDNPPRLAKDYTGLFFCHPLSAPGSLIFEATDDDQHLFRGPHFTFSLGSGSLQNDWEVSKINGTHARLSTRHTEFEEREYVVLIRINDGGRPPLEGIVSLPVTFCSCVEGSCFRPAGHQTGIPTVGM
The experiment can be described thus: SPR (Biacore 8K), antibody captured on Protein A chip, hCDH17-his injected.

The target of experiment [2] is T2, human CDH17, full length, expressed on cells (HEK293-hCDH17); AsPC-1, HCT-8, AGS, LoVo, KATO III, HT-29 tumor … (human, UniProt Q12864 23-832).
T2 construct: also called human CDH17 expressed on tumor cells
T2 sequence: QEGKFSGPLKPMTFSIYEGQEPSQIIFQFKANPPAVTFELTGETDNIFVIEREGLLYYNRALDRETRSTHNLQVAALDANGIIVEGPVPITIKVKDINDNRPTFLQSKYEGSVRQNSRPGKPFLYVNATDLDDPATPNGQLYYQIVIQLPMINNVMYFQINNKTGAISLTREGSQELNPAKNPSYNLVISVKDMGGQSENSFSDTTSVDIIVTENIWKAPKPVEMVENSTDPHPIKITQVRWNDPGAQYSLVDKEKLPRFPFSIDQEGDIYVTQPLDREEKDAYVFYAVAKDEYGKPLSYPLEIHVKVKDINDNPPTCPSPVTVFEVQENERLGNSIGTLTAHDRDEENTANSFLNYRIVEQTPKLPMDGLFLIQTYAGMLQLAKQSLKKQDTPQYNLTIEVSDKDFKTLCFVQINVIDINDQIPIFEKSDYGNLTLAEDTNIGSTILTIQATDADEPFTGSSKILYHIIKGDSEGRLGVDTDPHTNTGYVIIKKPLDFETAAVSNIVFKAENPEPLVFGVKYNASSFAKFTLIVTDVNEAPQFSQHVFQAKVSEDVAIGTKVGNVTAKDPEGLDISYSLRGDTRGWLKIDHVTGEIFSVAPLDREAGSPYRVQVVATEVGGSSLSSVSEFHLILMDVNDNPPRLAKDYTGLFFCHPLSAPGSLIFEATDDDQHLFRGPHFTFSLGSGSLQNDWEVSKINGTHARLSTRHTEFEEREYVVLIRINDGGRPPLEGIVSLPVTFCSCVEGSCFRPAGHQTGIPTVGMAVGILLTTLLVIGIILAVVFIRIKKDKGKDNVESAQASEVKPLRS
The experiment can be described thus: flow cytometry, HCT-8 cells. In general terms: In flow cytometry, cells or beads pass a laser one at a time.

Experiment [3] deals with T3, human CDH16 protein (hCDH16-his, Novoprotein, Cat. No. CJ16) (human, UniProt O75309 19-786).
T3 construct: Bought; also called human CDH16-his
T3 sequence (looked up): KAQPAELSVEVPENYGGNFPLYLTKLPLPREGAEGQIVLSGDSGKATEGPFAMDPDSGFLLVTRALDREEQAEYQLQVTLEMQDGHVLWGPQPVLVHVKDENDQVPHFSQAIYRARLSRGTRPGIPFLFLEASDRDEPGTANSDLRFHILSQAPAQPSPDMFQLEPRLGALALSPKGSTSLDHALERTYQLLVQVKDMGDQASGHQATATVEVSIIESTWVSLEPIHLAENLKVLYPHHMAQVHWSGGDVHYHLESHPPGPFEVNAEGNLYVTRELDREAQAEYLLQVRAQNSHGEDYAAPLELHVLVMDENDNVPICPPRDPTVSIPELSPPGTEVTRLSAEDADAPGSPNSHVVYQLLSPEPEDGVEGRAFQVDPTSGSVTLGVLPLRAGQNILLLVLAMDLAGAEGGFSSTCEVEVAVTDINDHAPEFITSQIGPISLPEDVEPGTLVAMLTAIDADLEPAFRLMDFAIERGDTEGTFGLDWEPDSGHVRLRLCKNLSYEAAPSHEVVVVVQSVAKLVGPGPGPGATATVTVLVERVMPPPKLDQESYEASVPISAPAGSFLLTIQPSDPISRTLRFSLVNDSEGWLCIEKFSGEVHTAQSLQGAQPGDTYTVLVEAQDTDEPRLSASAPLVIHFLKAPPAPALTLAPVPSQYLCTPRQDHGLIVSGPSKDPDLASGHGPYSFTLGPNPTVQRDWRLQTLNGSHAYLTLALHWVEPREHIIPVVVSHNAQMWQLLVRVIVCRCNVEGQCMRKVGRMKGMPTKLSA
The experiment can be described thus: ELISA, hCDH16-his coated at 1 ug/mL.

Experiment [4] deals with T2, human CDH17, full length, expressed on …. Briefly: flow cytometry, HEK293-hCDH17 cells.
For experiment [5], the target named is T1, hCDH17-his (full length extracellular …). The experiment can be described thus: SPR (Biacore 8K), two doses, antibody captured on Protein A chip, hCDH17-his at 25 nM and 100 nM. (In SPR one partner is held on a chip, and binding of the other changes the refractive index at the surface.)

B1: 143H10E4-z6 (antibody, V domains shown)
VH: QVQLVQSGAEVKKPGSSVKVSCKASGSTFTDHTIHWVRQAPGQGLEWIGYIYPVYGYTQNNEKFKGRATITADKSTSTAYMELSSLRSEDTAVYYCARSRDSNPYYFDYWGQGTTVTVSS
VL: EIVLTQSPDFQSVTPKEKVTITCTVSSSISSSNLHWYQQKPDQSPKPWIYGTSNLASGVPSRFSGSGSGTDYSLTINSLEAEDAATYYCQQWSSYPFTFGQGTKLEIK
notes: Humanized, human IgG1 constant region; also called 143H10E4 HU-VH1-1 / HU-VL1-3
B1: the binding result in experiment [1] and in experiment [2] was “binds” each time.

B2: 143H10E4-z9 (antibody, V domains shown)
VH: QVQLVQSGAEVKKPGSSVKVSCKASGSTFTDHTIHWVRQAPGQGLEWIGYIYPVYGYTQNNEKFKGRATITADKSTSTAYMELNSLRSEDTAVYYCARSRDSNPYYFDYWGQGTTVTVSS
VL: EIVLTQSPDFQSVTPKEKVTITCTVSSSISSSNLHWYQQKPDQSPKPWIYGTSNLASGVPSRFSGSGSGTDYSLTINSLEAEDAATYYCQQWSSYPFTFGQGTKLEIK
notes: Humanized, human IgG1 constant region; also called 143H10E4 HU-VH1-2 / HU-VL1-3
Take B2: the binding result in experiment [1] and in experiment [2] was “binds” in each case.

B3: 143H10E4-z3 (antibody, V domains shown)
VH: QVQLVQSGAEVKKPGSSVKVSCKASGSTFTDHTIHWVRQAPGQGLEWMGYIYPVYGYTQNNEKFKGRVTITADKSTSTAYMELSSLRSEDTAVYYCARSRDSNPYYFDYWGQGTTVTVSS
VL: EIVLTQSPDFQSVTPKEKVTITCTVSSSISSSNLHWYQQKPDQSPKPWIYGTSNLASGVPSRFSGSGSGTDYSLTINSLEAEDAATYYCQQWSSYPFTFGQGTKLEIK
notes: Humanized, human IgG1 constant region; also called 143H10E4 HU-VH1-0 / HU-VL1-3
As for B3, the binding result in experiment [1] and in experiment [2] was “binds” in each case.

B4: 103G6G1 chimeric mAb (antibody, V domains shown)
VH: EVKLVESEGGLVQPGSSMKLSCTASGFTFSDFYMAWVRQVPEKGLEWVANINYDSTITYYLDSLKSRFIISRDNAENILYLQMSSLKSEDTATYYCARLLYYYGSLYFDVWGTGTTVTVSS
VL: DIQMTQSPASLSASVGETVTITCRASENIYSYLAWYQQKQGKSPQLLVYDAKTLAEGVPSRFSGSGSGTQFSLKINSLQPEDFGSYYCQHHYGIPITFGAGTNLELK
notes: Mouse variable regions fused to human IgG1 constant region
With B4, the binding result in experiment [1] is “binds”; in experiment [3], “no binding (tested: titrated from 100 nM)”; in experiment [4] it was “binds”.

B5: 29D2D7-z19p1 (antibody, V domains shown)
VH: QVQLVQSGAEVKKPGASVKVSCKASGYTFTDYDMHWVKQAPGQGLEWIGGFDPESAGTVYNLRFKDKATLTADKSTSTAYMELRSLRSEDTAVYYCARKGYYSVSSPFTYWGQGTLVTVSS
VL: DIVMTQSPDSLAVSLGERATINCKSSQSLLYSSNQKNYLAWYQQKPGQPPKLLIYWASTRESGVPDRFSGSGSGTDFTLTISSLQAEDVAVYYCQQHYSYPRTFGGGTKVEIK
notes: PTM-removed variant of 29D2D7-z19 (VL CDR3 cysteine replaced)
B5: in experiment [2], the binding result is reported as “binds”.

B6: 29D2D7-z19p2 (antibody, V domains shown)
VH: QVQLVQSGAEVKKPGASVKVSCKASGYTFTDYDMHWVKQAPGQGLEWIGGFDPESAGTVYNLRFKDKATLTADKSTSTAYMELRSLRSEDTAVYYCARKGYYSVSSPFTYWGQGTLVTVSS
VL: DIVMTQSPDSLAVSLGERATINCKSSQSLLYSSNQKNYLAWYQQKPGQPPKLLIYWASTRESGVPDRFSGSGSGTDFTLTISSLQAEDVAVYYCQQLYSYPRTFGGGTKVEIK
notes: PTM-removed variant of 29D2D7-z19; VH is that of 29D2D7-z19
As for B6, the binding result in experiment [2] was “binds”.

B7: 29H8D3-z12p3 (antibody, V domains shown)
VH: QVQLVQSGAEVKKPGASVKVSCKASGYTFTDHTIHWMRQRPGQGLEWIGYIYPRDGYTKYNEKFKDRATLTADTSTSTAYMELRSLRSDDTAVYYCARFYYGYWYFDVWGQGTTVTVSS
VL: DIVMTQSPLSLPVTPGEPASISCRSSKSLLRSNANTYLYWFLQKPGQSPQVLIYRMSNLASGVPDRFSGSGSGTDFTLKISRVEAEDVGVYYCMQHLEYPFTFGQGTKLEIK
notes: PTM-removed variant of 29H8D3-z12
B7: the binding result in experiment [5] and in experiment [2] was “binds” in each case.

B8: 29H8D3-z12p22 (antibody, V domains shown)
VH: QVQLVQSGAEVKKPGASVKVSCKASGYTFTDHTIHWMRQRPGQGLEWIGYIYPRDGYTKYNEKFKDRATLTADTSTSTAYMELRSLRSDDTAVYYCARFYYGYWYFDVWGQGTTVTVSS
VL: DIVMTQSPLSLPVTPGEPASISCRSSKSLLRSNGNTYLYWFLQKPGQSPQVLIYRMSNLASGVPDRFSGSGSGTDFTLKISRVEAEDVGVYYCLQHLEYPFTFGQGTKLEIK
notes: PTM-removed variant of 29H8D3-z12; VH is that of 29H8D3-z12
For B8, the binding result in experiment [5] and in experiment [2] was “binds” throughout.

B9: 29H8D3-z12p4 (antibody, V domains shown)
VH: QVQLVQSGAEVKKPGASVKVSCKASGYTFTDHTIHWMRQRPGQGLEWIGYIYPREGYTKYNEKFKDRATLTADTSTSTAYMELRSLRSDDTAVYYCARFYYGYWYFDVWGQGTTVTVSS
VL: DIVMTQSPLSLPVTPGEPASISCRSSKSLLRSNANTYLYWFLQKPGQSPQVLIYRMSNLASGVPDRFSGSGSGTDFTLKISRVEAEDVGVYYCMQHLEYPFTFGQGTKLEIK
notes: as for B7
In the case of B9, the binding result in experiment [5] and in experiment [2] was “binds” in each case.

B10: 29H8D3-z12p7 (antibody, V domains shown)
VH: QVQLVQSGAEVKKPGASVKVSCKASGYTFTDHTIHWMRQRPGQGLEWIGYIYPREGYTKYNEKFKDRATLTADTSTSTAYMELRSLRSDDTAVYYCARFYYGYWYFDVWGQGTTVTVSS
VL: DIVMTQSPLSLPVTPGEPASISCRSSKSLLRSNAQTYLYWFLQKPGQSPQVLIYRMSNLASGVPDRFSGSGSGTDFTLKISRVEAEDVGVYYCMQHLEYPFTFGQGTKLEIK
notes: as for B7
B10: the binding result in experiment [5] and in experiment [2] was “binds” throughout.

B11: 95F2C2F12 chimeric mAb (antibody, V domains shown)
VH: QVQLQQSGAELMKPGASVKLSCKATGYTFTGYWIEWIKQRPGHGLEWIGEILPGSGSTNYNEKFKGKATFTADTSSNTAYMELSSLTTEDSAIYYCARAGYNNWGQGTTLTVSS
VL: DIQMTQSPSSLSASLGERVSLTCRASQDIGRSVNWLQQEPDGTIKRLIYATSSLESGVPKRFSGSRSGSDYFLTISSLESEDFVDYYCLQYASSPLTFGAGTKLELK
notes: as for B4
Consider B11, for which the binding result in experiment [1] is given as “binds”; in experiment [3], “no binding (tested: titrated from 100 nM)”; in experiment [4], “binds”.
